What was measured:
[1] = In vitro enzyme assay for taxoid oxygenase activity (baculovirus-Spodoptera expressed enzyme), substrate taxadienol; type: biochemical, Spodoptera frugiperda
Procedure: The standard enzyme assay for assessing oxygenase activity of the recombinant cytochrome P450 employed the following conditions: 25 mM HEPES buffer, pH 7.5, 400 μM NADPH, 300 μg protein and 30 μM substrate (taxadiene, taxadienol, or taxadienyl acetate) in a total volume of 1 mL. Samples were incubated at 32° C. for 12 hours, after which 1 mL of saturated NaCl solution was added to the reaction mixture, followed by extraction of the product with 2 mL of hexane/ethyl acetate (4:1, v/v). The extracts were dried and dissolved in acetonitrile for product analysis by radio-HPLC [column: Alltech Econosil C18 5 μm particle size (250 mm×4.6 mm): solvent system A: 0.01% (v/v) H3PO4, 2% acetonitrile, 97.99% H2O; solvent system B: 0.01% H3PO4, 99.99 acetonitrile; gradient: 0–5 minutes, 100% A; 5–15 minutes, 0–50% B; 15–55 minutes, 50–100% B; 55–65 minutes, 100% B; 65–70 minu A; 70–75 minutes, 100% A; flow rate 1 mL/minute; for detection, a radio-chromatography detector (Flow-One®-Beta Series A-100, Radiomatic) was used].
For the functional characterization of clone F16, the recombinant baculovirus carrying the cytochrome P450 clone F16 ORF was coexpressed with a recombinant baculovirus carrying the Taxus NADPH:cytochrome P450 reductase gene. To the insect cell suspension, the two recombinant baculoviruses were added at a multiplicity of infection of 1–5. The viral titers were determined according to the End-Point Dilution method (O'Reilly et al., Baculovirus Expression Vectors, A Laboratory Manual, New York, N.Y., Freeman and Company, 1992). For infection, the cells were incubated for 1 hour at 28° C. and 80 rpm. The cell culture volume was brought to 50 mL with standard cell culture medium, and hemin (Sigma) was added to a final concentration of 2 μg/mL. The infected cells were incubated for 48 hours in a gyratory shaker at 28° C. and 140 rpm. The infected insect cells were harvested from the cell culture medium by centrifugation as described above, and washed twice with PBS (50 mM KH2PO4, pH 7.5, 0.9% NaCl). […]

[2] = type: binding, Saccharomyces cerevisiae
Method in brief: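 Full-length Taxus cytochrome P450 clones in pYeDP60 were expressed in yeast, with induction by galactose (10% final) for about 24 h. Whole cells were treated with CO, and CO-difference spectra were recorded spectrophotometrically against untreated cells.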

[3] = In vivo assay of yeast cells expressing recombinant oxygenases, radio-HPLC, substrate taxadiene; type: cell-based, Saccharomyces cerevisiae; details: assayed with Taxadiene; graded symbols, key not given
[4] = In vitro enzyme assay for taxoid oxygenase activity (baculovirus-Spodoptera expressed enzyme), substrate taxadiene; type: biochemical, Spodoptera frugiperda; details: 30 μM substrate, 32° C., 12 hours
Procedure: The standard enzyme assay for assessing oxygenase activity of the recombinant cytochrome P450 employed the following conditions: 25 mM HEPES buffer, pH 7.5, 400 μM NADPH, 300 μg protein and 30 μM substrate (taxadiene, taxadienol, or taxadienyl acetate) in a total volume of 1 mL. Samples were incubated at 32° C. for 12 hours, after which 1 mL of saturated NaCl solution was added to the reaction mixture, followed by extraction of the product with 2 mL of hexane/ethyl acetate (4:1, v/v). […]
For the functional characterization of clone F16, the recombinant baculovirus carrying the cytochrome P450 clone F16 ORF was coexpressed with a recombinant baculovirus carrying the Taxus NADPH:cytochrome P450 reductase gene. […] The viral titers were determined according to the End-Point Dilution method (O'Reilly et al., Baculovirus Expression Vectors, A Laboratory Manual, New York, N.Y., Freeman and Company, 1992). […]

B1: clone F16: Taxus cuspidata cytochrome P450 taxane 9α-hydroxylase, full-length clone, SEQ ID NO: 82 (nt) / 88 (aa) (protein, listed as Taxus cuspidata)
chain: MDALKQLEVSPSILFVTLAVMAGIILFFRSKRHSSVKLPPGNLGFPLVGETLQFVRSLGSSTPQQFIEERMSKFGDVFKTSIIGHPTVVLCGPAGNRLVLSNENKLVQMSWPSSMMKLIGEDCLGGKTGEQHRIVRAALTRFLGPQALQNHFAKMSSGIQRHINEKWKGKDEATVLPLVKDLVFSVASRLFFGITEEHLQEQLHNLLEVILVGSFSVPLNIPGFSYHKAIQARATLADIMTHLIEKRRNELRAGTASENQDLLSVLLTFTDERGNSLADKEILDNFSMLLHGSYDSTNSPLTMLIKVLASHPESYEKVAQEQFGILSTKMEGEEIAWKDLKEMKYSWQVVQETLRMYPPIFGTFRKAITDIHYNGYTIPKGWKLLWTTYSTQTKEEYFKDADQFKPSRFEEEGKHVTPYTYLPFGGGMRVCPGWEFAKMETLLFLHHFVKAFSGLKAIDPNEKLSGKPLPPLPVNGLPIKLYSRS
[1]; 30 μM substrate, 32° C., 12 hours, GC-MS
  conversion of taxa-4(20),11(12)-dien-5α-ol: converted most efficiently to a diol product
[1]; baculovirus-Spodoptera expression
  enzyme function assigned from screening: cytochrome P450 taxane-9α-hydroxylase
[1]; preparative incubation, 1H- and 13C-NMR
  identity of the product of the oxygenase reaction with taxadienol: taxa-4(20),11(12)-dien-5α,9α-diol
[2]
  CO diff. spec.: +++
[3]
  product identified HPLC peak: No
[4]
  conversion of taxadiene to an oxygenated product: not converted detectably
